Assay results published in patent publication US20200087373A1 (UNIVERSITY OF COPENHAGEN, published 2020).
Ends that are not written are not given here. * marks the point of attachment. C16 diacid = O=C(O)CCCCCCCCCCCCCCC(=O)*; Stearoyl = CCCCCCCCCCCCCCCCCC(=O)*; Palmitoyl = CCCCCCCCCCCCCCCC(=O)*; Myristoyl = CCCCCCCCCCCCCC(=O)*; Lauroyl = CCCCCCCCCCCC(=O)*

T1: human GIP receptor (human, UniProt P48546 22-466)
T1 sequence (looked up): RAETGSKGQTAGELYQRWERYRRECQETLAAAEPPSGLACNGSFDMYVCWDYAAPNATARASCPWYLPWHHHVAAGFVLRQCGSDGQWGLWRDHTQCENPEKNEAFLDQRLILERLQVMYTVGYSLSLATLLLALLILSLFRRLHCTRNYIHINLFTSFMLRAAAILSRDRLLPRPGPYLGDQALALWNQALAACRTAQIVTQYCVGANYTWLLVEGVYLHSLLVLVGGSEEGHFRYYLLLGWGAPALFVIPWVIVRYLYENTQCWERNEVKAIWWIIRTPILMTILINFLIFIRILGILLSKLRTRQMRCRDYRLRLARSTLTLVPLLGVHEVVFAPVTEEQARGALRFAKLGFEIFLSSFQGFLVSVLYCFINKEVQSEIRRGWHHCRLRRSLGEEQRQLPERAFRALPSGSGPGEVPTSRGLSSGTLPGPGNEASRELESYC

B1: AT116 [hGIP(3-30)NH2-C12/18] (H18K) (peptide)
peptide: EGTFISDYSIAMDKIK(Lauroyl)QQDFVNWLLAQK-NH2
modifications: N-terminus assumed
SMILES: CCCCCCCCCCCC(=O)NCCCC[C@H](NC(=O)[C@@H](NC(=O)[C@H](CCCCN)NC(=O)[C@H](CC(=O)O)NC(=O)[C@H](CCSC)NC(=O)[C@H](C)NC(=O)[C@@H](NC(=O)[C@H](CO)NC(=O)[C@H](Cc1ccc(O)cc1)NC(=O)[C@H](CC(=O)O)NC(=O)[C@H](CO)NC(=O)[C@@H](NC(=O)[C@H](Cc1ccccc1)NC(=O)[C@@H](NC(=O)CNC(=O)[C@@H](N)CCC(=O)O)[C@@H](C)O)[C@@H](C)CC)[C@@H](C)CC)[C@@H](C)CC)C(=O)N[C@@H](CCC(N)=O)C(=O)N[C@@H](CCC(N)=O)C(=O)N[C@@H](CC(=O)O)C(=O)N[C@@H](Cc1ccccc1)C(=O)N[C@H](C(=O)N[C@@H](CC(N)=O)C(=O)N[C@@H](Cc1c[nH]c2ccccc12)C(=O)N[C@@H](CC(C)C)C(=O)N[C@@H](CC(C)C)C(=O)N[C@@H](C)C(=O)N[C@@H](CCC(N)=O)C(=O)N[C@@H](CCCCN)C(N)=O)C(C)C
B2: AT160 [hGIP(3-30)NH2[H18K]-C18/18] (peptide)
peptide: EGTFISDYSIAMDKIK(Stearoyl)QQDFVNWLLAQK-NH2
modifications: N-terminus assumed
SMILES: CCCCCCCCCCCCCCCCCC(=O)NCCCC[C@H](NC(=O)[C@@H](NC(=O)[C@H](CCCCN)NC(=O)[C@H](CC(=O)O)NC(=O)[C@H](CCSC)NC(=O)[C@H](C)NC(=O)[C@@H](NC(=O)[C@H](CO)NC(=O)[C@H](Cc1ccc(O)cc1)NC(=O)[C@H](CC(=O)O)NC(=O)[C@H](CO)NC(=O)[C@@H](NC(=O)[C@H](Cc1ccccc1)NC(=O)[C@@H](NC(=O)CNC(=O)[C@@H](N)CCC(=O)O)[C@@H](C)O)[C@@H](C)CC)[C@@H](C)CC)[C@@H](C)CC)C(=O)N[C@@H](CCC(N)=O)C(=O)N[C@@H](CCC(N)=O)C(=O)N[C@@H](CC(=O)O)C(=O)N[C@@H](Cc1ccccc1)C(=O)N[C@H](C(=O)N[C@@H](CC(N)=O)C(=O)N[C@@H](Cc1c[nH]c2ccccc12)C(=O)N[C@@H](CC(C)C)C(=O)N[C@@H](CC(C)C)C(=O)N[C@@H](C)C(=O)N[C@@H](CCC(N)=O)C(=O)N[C@@H](CCCCN)C(N)=O)C(C)C
B3: AT143 [hGIP(3-30)NH2[M14L; H18K]-C16/18] (peptide)
peptide: EGTFISDYSIALDKIK(Palmitoyl)QQDFVNWLLAQK-NH2
modifications: N-terminus assumed
SMILES: CCCCCCCCCCCCCCCC(=O)NCCCC[C@H](NC(=O)[C@@H](NC(=O)[C@H](CCCCN)NC(=O)[C@H](CC(=O)O)NC(=O)[C@H](CC(C)C)NC(=O)[C@H](C)NC(=O)[C@@H](NC(=O)[C@H](CO)NC(=O)[C@H](Cc1ccc(O)cc1)NC(=O)[C@H](CC(=O)O)NC(=O)[C@H](CO)NC(=O)[C@@H](NC(=O)[C@H](Cc1ccccc1)NC(=O)[C@@H](NC(=O)CNC(=O)[C@@H](N)CCC(=O)O)[C@@H](C)O)[C@@H](C)CC)[C@@H](C)CC)[C@@H](C)CC)C(=O)N[C@@H](CCC(N)=O)C(=O)N[C@@H](CCC(N)=O)C(=O)N[C@@H](CC(=O)O)C(=O)N[C@@H](Cc1ccccc1)C(=O)N[C@H](C(=O)N[C@@H](CC(N)=O)C(=O)N[C@@H](Cc1c[nH]c2ccccc12)C(=O)N[C@@H](CC(C)C)C(=O)N[C@@H](CC(C)C)C(=O)N[C@@H](C)C(=O)N[C@@H](CCC(N)=O)C(=O)N[C@@H](CCCCN)C(N)=O)C(C)C
B4: AT159 [hGIP(3-30)NH2[K16R; H18K; K30R]-C16diacid/18] (peptide)
peptide: EGTFISDYSIAMDRIK(C16 diacid)QQDFVNWLLAQR-NH2
modifications: N-terminus assumed
SMILES: CC[C@H](C)[C@H](NC(=O)[C@H](CO)NC(=O)[C@H](Cc1ccc(O)cc1)NC(=O)[C@H](CC(=O)O)NC(=O)[C@H](CO)NC(=O)[C@@H](NC(=O)[C@H](Cc1ccccc1)NC(=O)[C@@H](NC(=O)CNC(=O)[C@@H](N)CCC(=O)O)[C@@H](C)O)[C@@H](C)CC)C(=O)N[C@@H](C)C(=O)N[C@@H](CCSC)C(=O)N[C@@H](CC(=O)O)C(=O)N[C@@H](CCCNC(=N)N)C(=O)N[C@H](C(=O)N[C@@H](CCCCNC(=O)CCCCCCCCCCCCCCC(=O)O)C(=O)N[C@@H](CCC(N)=O)C(=O)N[C@@H](CCC(N)=O)C(=O)N[C@@H](CC(=O)O)C(=O)N[C@@H](Cc1ccccc1)C(=O)N[C@H](C(=O)N[C@@H](CC(N)=O)C(=O)N[C@@H](Cc1c[nH]c2ccccc12)C(=O)N[C@@H](CC(C)C)C(=O)N[C@@H](CC(C)C)C(=O)N[C@@H](C)C(=O)N[C@@H](CCC(N)=O)C(=O)N[C@@H](CCCNC(=N)N)C(N)=O)C(C)C)[C@@H](C)CC
B5: AT158 [hGIP(3-30)NH2[H18K]-C16diacid/18] (peptide)
peptide: EGTFISDYSIAMDKIK(C16 diacid)QQDFVNWLLAQK-NH2
modifications: N-terminus assumed
SMILES: CC[C@H](C)[C@H](NC(=O)[C@H](CO)NC(=O)[C@H](Cc1ccc(O)cc1)NC(=O)[C@H](CC(=O)O)NC(=O)[C@H](CO)NC(=O)[C@@H](NC(=O)[C@H](Cc1ccccc1)NC(=O)[C@@H](NC(=O)CNC(=O)[C@@H](N)CCC(=O)O)[C@@H](C)O)[C@@H](C)CC)C(=O)N[C@@H](C)C(=O)N[C@@H](CCSC)C(=O)N[C@@H](CC(=O)O)C(=O)N[C@@H](CCCCN)C(=O)N[C@H](C(=O)N[C@@H](CCCCNC(=O)CCCCCCCCCCCCCCC(=O)O)C(=O)N[C@@H](CCC(N)=O)C(=O)N[C@@H](CCC(N)=O)C(=O)N[C@@H](CC(=O)O)C(=O)N[C@@H](Cc1ccccc1)C(=O)N[C@H](C(=O)N[C@@H](CC(N)=O)C(=O)N[C@@H](Cc1c[nH]c2ccccc12)C(=O)N[C@@H](CC(C)C)C(=O)N[C@@H](CC(C)C)C(=O)N[C@@H](C)C(=O)N[C@@H](CCC(N)=O)C(=O)N[C@@H](CCCCN)C(N)=O)C(C)C)[C@@H](C)CC
B6: AT117 [hGIP(3-30)NH2[H18K]-C16/18] (peptide)
peptide: EGTFISDYSIAMDKIK(Palmitoyl)QQDFVNWLLAQK-NH2
modifications: N-terminus assumed
SMILES: CCCCCCCCCCCCCCCC(=O)NCCCC[C@H](NC(=O)[C@@H](NC(=O)[C@H](CCCCN)NC(=O)[C@H](CC(=O)O)NC(=O)[C@H](CCSC)NC(=O)[C@H](C)NC(=O)[C@@H](NC(=O)[C@H](CO)NC(=O)[C@H](Cc1ccc(O)cc1)NC(=O)[C@H](CC(=O)O)NC(=O)[C@H](CO)NC(=O)[C@@H](NC(=O)[C@H](Cc1ccccc1)NC(=O)[C@@H](NC(=O)CNC(=O)[C@@H](N)CCC(=O)O)[C@@H](C)O)[C@@H](C)CC)[C@@H](C)CC)[C@@H](C)CC)C(=O)N[C@@H](CCC(N)=O)C(=O)N[C@@H](CCC(N)=O)C(=O)N[C@@H](CC(=O)O)C(=O)N[C@@H](Cc1ccccc1)C(=O)N[C@H](C(=O)N[C@@H](CC(N)=O)C(=O)N[C@@H](Cc1c[nH]c2ccccc12)C(=O)N[C@@H](CC(C)C)C(=O)N[C@@H](CC(C)C)C(=O)N[C@@H](C)C(=O)N[C@@H](CCC(N)=O)C(=O)N[C@@H](CCCCN)C(N)=O)C(C)C

What was measured:
[1] = biological target: T1, human GIP receptor; experiment: cell-based or functional assay
[2] = biological target: T1, human GIP receptor; experiment: 125I-hGIP(1-42) competition binding, COS-7 cells expressing human GIPR
Method: (§1) After incubation, the cells were washed twice in ice-cold binding buffer (+/−2% HSA) and lysed using 200 mM NaOH with 1% SDS for 30 min. Nonspecific binding was determined as the binding of radioactive ligand to untransfected cells.

[3] = biological target: T1, human GIP receptor; experiment: 125I-hGIP(1-42) competition binding, COS-7 cells expressing human GIPR, 2% HSA
Method: as §1

[4] = biological target: T1, human GIP receptor; experiment: 125I-hGIP(1-42) competition binding, COS-7 cells expressing human GIPR, 0.1% casein (no HSA)
Method: as §1

[5] = biological target: T1, human GIP receptor; experiment: ratio of IC50 with 2% HSA to IC50 with 0.1% casein, 125I-hGIP competition binding on hGIPR COS-7 cells
Method: as §1

[6] = biological target: T1, human GIP receptor; experiment: 125I-hGIP competition binding on hGIPR COS-7 cells; fold in affinity, paired, reference taken as GIP(3-30)NH2
Method: as §1

[7] = biological target: T2, human serum albumin (human, UniProt P02768 25-609); experiment: 125I-human GIP competition binding on hGIPR COS-7 cells with and without 2% HSA; fold change of IC50 taken as HSA binding
T2 construct: also called HSA; human albumin
T2 sequence (P02768 25-609 limits assumed): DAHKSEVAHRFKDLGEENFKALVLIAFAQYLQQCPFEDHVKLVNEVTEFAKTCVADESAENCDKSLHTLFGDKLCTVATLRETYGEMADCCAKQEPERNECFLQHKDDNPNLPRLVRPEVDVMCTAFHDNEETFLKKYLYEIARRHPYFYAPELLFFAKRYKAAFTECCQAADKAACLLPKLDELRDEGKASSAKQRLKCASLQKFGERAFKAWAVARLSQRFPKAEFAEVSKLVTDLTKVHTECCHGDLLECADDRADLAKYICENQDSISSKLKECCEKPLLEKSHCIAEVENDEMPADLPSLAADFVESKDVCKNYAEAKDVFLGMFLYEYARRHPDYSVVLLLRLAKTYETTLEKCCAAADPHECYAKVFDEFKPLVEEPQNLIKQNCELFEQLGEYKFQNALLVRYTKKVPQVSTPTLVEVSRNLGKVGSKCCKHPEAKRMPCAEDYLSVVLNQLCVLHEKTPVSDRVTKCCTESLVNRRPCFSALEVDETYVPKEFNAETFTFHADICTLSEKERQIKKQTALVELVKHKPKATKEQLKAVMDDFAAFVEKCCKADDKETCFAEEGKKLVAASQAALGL
Method: as §1

Binder | cAMP - antagonisme IC50 [1] [nM] | cAMP - antagonisme fold (paired) [1] [fold] | IC50 [2] [nM] | IC50 [3] [nM] | IC50 [4] [nM] | Fold change (IC50 2% HSA / IC50 0.1% casein) [5] [fold] | fold (paired) [6] [fold] | binding result [7]
B1 | 11.9 | 1.2 | 71.2 | 321 | 61.5 | 5.2 | 5 | 
B2 | 36.1 | 0.7 | 48.8 | 175 | 48.8 | 3.6 | 6 | 
B3 | 13.3 | 0.3 | 86.1 | 105 | 86.1 | 1.2 | 11 | 
B4 | 5.6 | 0.1 | 25 | 20 | 25 | 0.8 | 3 | 
B5 | 4.5 | 0.1 | 7.9 | 16 | 7.9 | 2 | 1 | 
EGTFISDYSIAMDK(Myristoyl)IHQQDFVNWLLAQK-NH2 [AT111 [hGIP(3-30)NH2-C14/16]] | 21.9 | 3.3 | 261 | 2090 | 407 | 5.1 | 31 | 
B6 |  |  |  |  |  |  |  | binds
